Data reported in WO2009104736A1 (dated 2009).

T1: Aβ 25-35 (UniProt P05067 696-706)
T1 construct: domain: Aβ 25-35; Positions count on Aβ; also called product code 4309-v
T1 peptide (looked up): GSNKGAIIGLM

T2: Aβ 34-42 (UniProt P05067 705-713)
T2 construct: domain: Aβ 34-42; Positions count on Aβ
T2 peptide (looked up): LMVGGVVIA


Legend:
[1] = target: amyloid β 1-42 protein (Aβ 1-42) (UniProt P05067); assay: SPR competition, Biacore J; Aβ 1-42 on a CM5 chip saturated with 3.4A10 (competitor), then 3.4A10 and 4G8 mixed 20:1; parameters: unit not given here
[2] = target: T1, Aβ 25-35; assay: dot blot of peptides on nitrocellulose
[3] = target: T2, Aβ 34-42; assay: dot blot of peptides on nitrocellulose

Sequence of amyloid β 1-42 protein (Aβ 1-42) (P05067 672-713 limits assumed): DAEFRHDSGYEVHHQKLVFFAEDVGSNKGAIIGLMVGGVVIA

enhanced reaction (response level) [1]	binding result [2]	binding result [3]	Molecule
> 2000	–	–	mouse anti-human Aβ monoclonal antibody 4G8
–	no binding (tested: 1 μg/ml antibody)	no binding (tested: 1 μg/ml antibody)	monoclonal antibody 3.4A10 (antibody of Example 1) (antibody, V domains shown, Mouse IgG2b from a hybridoma, purified from ascites; also called TAPIR antibody) VH: EVQLLESGGGLVQPGGSRKLSCAASGFTFSSFGVHWFRQAPEKGLEWVAYISSGSSTIYYADTVKGRFTISRDNPKNTLFLQMASLRSEDTAMYYCAPYGSSPFPYWGQGTLVTVST VL: ELQLTQSPASLAVSLGQRATISCRASESVDSYGYNFMHWYQQKPGQPPKLLIYLASNLESGVPARFSGSGSRTDFTLTIDPVEADDAATYYCQQNNEDPLTFGAGTKLELKR
